Measured values: PMC5714250

T1: APUM23 85-655 (WT) (Arabidopsis thaliana, UniProt Q9C552 85-655)
T1 sequence: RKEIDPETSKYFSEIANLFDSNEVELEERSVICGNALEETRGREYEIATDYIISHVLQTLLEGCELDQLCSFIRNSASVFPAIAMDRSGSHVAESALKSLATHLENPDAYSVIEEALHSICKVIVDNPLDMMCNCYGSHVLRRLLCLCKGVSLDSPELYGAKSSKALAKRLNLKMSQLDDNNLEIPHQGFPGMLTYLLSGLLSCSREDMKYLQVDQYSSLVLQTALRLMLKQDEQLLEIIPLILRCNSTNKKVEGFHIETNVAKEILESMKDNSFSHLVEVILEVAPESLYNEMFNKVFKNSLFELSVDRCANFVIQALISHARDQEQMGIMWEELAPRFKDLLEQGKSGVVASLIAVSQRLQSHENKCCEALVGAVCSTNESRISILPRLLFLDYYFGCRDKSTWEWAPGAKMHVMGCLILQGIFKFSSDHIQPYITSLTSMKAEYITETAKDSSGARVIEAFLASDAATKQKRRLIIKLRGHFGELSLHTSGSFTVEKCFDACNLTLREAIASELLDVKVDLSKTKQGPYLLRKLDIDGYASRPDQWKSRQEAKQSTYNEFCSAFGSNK

T2: APUM23Delete (Arabidopsis thaliana, UniProt Q9C552 85-655, del235-270)
T2 sequence: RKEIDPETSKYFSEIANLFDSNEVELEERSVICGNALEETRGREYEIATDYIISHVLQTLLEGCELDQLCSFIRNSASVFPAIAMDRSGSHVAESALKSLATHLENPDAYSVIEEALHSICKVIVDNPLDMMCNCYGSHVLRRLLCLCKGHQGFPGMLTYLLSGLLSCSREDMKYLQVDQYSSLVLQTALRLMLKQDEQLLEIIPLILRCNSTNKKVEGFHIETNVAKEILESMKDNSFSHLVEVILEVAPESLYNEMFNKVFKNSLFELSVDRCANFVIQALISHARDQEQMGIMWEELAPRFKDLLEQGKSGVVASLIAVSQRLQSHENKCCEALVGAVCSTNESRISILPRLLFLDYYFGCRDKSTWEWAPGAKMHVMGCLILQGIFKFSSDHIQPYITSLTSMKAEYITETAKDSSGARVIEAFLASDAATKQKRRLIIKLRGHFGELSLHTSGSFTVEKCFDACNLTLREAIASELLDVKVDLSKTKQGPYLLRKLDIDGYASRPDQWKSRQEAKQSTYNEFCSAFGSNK


Key:
[1] = target: T1, APUM23 85-655 (WT); test: X-ray crystallography
[2] = target: T2, APUM23Delete; test: X-ray crystallography

Binder	binding result [1]	binding result [2]
GGAGUUGACGG (ssRNA) [11-mer A+3G RNA]	binds	
GGAAUUGACGG (ssRNA) [11-mer WT RNA (18S rRNA 1141-1151)]		binds
